Experimental data from patent US20010016194A1 (priority 1999, published 2001).

Experiments:
14-3-3 proteins = assay: COS cells transfected with IL-2Rβ chain constructs, immunoprecipitated with Mik-β1, blotted with anti-14-3-3; assay type: cell-based; settings: transfected COS cell lysates, FIG. 8a
Protocol: (§1) COS cells were transfected via the DOTAP method (Boehringer-Mannheim, Indianapolis, Ind.) following the manufacturer's instructions. The transfection cocktail contained 5 μg of DNA total and […] of DOTAP in a final volume of […] HBS (25mM HEPES, pH 7.4 and lOOmM NaCl). The COS cells were grown in DMEM medium supplemented with 10% heat-inactivated fetal calf serum, penicillin/streptomycin, 25mM HEPES, pH 7.4, and L-glutamine. The COS cells were exposed to the transfection cocktail for 12 hours, washed and subsequently cultured in fresh medium. 24 hours after washing approximately 3×10^5 cells were harvested and washed twice in chilled PBS. A lysis buffer was prepared and consisted of […] NaCl, 50mM Tris pH=7.4, 0.5% CHAPS (Pierce), […] (Sigma), supplemented with the following protease inhibitors immediately before use: aprotinin (Sigma) 2.5mg/ml, leupeptin (Boehringer-Mannheim) 2.5 mg/ml; Pepstatin A (Boehringer-Mannheim) […], PMSF (Sigma) […], NaF (Sigma) 100mm and sodium orthovanadate (Sigma) lmM. The transfected COS cells were lysed in 0.5 ml of lysis buffer on ice for 10 minutes, and subsequently centrifuged at 12,000 xg for 5 minutes, remaining supernatants were collected, and supplemented with pre-immune serum and protein G-agarose beads (BRL-Gibco, Gaithersburg, MD), which had been previously washed in lysis buffer. […]

Raf-1 = assay: COS cells transfected with IL-2Rβ chain constructs, immunoprecipitated with Mik-β1, blotted with anti-Raf-1; assay type: cell-based; settings: transfected COS cell lysates, FIG. 8a
Protocol: as §1

[1] = molecular target: T1, Raf-1 proteins present in T-cell lysates (Homo sapiens, UniProt P04049); assay: Cell-free system: binding of Raf-1 from T-cell lysates to FLAG-HMK-IL-2Rβ chain fusion proteins on anti-FLAG beads, anti-Raf-1 immunoblot; settings: lysates from PHA activated peripheral blood mononuclear cells, FIG. 8b
T1 construct: endogenous in cells; host or cells: PHA-stimulated human peripheral blood mononuclear cells (T cells), lysate
Text: (ii) In order to study the interaction of IL-2Rβ chain with intracellular molecules, the FLAG-HMK-IL-2Rβ chain cytoplasmic domain fusion protein was purified from bacterial lysate using the M2 anti-FLAG monoclonal antibody in a standard affinity chromatography procedure. More specifically, bacterial lysate proteins were absorbed onto anti-FLAG (M2) affinity column (IBI-Kodak, New Haven, Conn., USA). After washing the column, the adsorbed proteins were eluted with either glycine buffer (pH 3) or FLAG peptide (10^−4M). Proteins in various fractions were analyzed for expected size (about 33 kDa) and purity after separation on SDS-PAGE and Commassie blue staining. The presence of a functional HMK recognition site was confirmed by phosphorylation of the purified 33 kDa IL-2Rβ chain fusion protein by HMK. More specifically, the eluted fusion proteins were tested for susceptibility to phosphorylation by incubation with the catalytic subunit of bovine heart muscle kinase (Sigma) (1 U/ul) in buffer containing 20 mM Tric-HCl, pH 7.5, 1 mM DTT, 100 mM NaCl, 10 mM MgCl2 and 1μCi [γ^32p] ATP for 30 min at 37° C. followed by SDS-PAGE and autoradiography. Purified FLAG-HMK-IL-2Rβ chain fusion proteins were used as an affinity reagent to probe for cytosolic proteins present in lysates of human T cells, metabolically labeled with [^35S ]-methionine, that bind to the IL-2Rβ chain. […] For [^35S]-methionine labeling, the cells were suspended at 4×10^7 cells/ml at 37° C. followed by addition of 0.5 mCi of [^35S]-methionine for 4 hours prior to lysis in Dounce homogenization buffer and application of the lysate to the affinity column. Several [^35S]-labeled proteins were retained by the FLAG-HMK-IL-2Rβ chain cytosolic domain fusion protein bound to the affinity column. One of these proteins was identified as Raf-1 by immunoblotting using a polyclonal antibody specific for the SP-63 peptide which corresponds to the C-terminal fragment of Raf-1. A molar excess of the competing SP-63 peptide blocked binding of the anti-SP-63 antibody to Raf-1.
Using the basic cell-free system described above, a number of FLAG-HMK-IL-2Rβ chain wild type FLAG-HMK-IL2Rβ chain deletion mutant proteins were then studied with respect to this specific interaction with Raf-i proteins present in T-cell lysates. These FLAG-HMK-IL2Rβ chain wild type (WT) and deletion mutants lacking certain defined domains of the IL-2Rβ chain were used to identify the IL-2Rβ chain domain involved in Raf-1 binding. Assay conditions were similar to those described above. […] In FIG. 1, there is shown, schematically, all of the constructs, i.e., FLAG-HMK-IL-2Rβ chain fusion proteins produced in transformed bacterial cells and used in this study. These FLAG-HMK- fusion proteins-coated beads were then used as affinity reagents to absorb Raf-1 proteins present in T-cell lysates. T-cell derived proteins bound to FLAG-HMK fusion proteins were then eluted using buffer containing FLAG peptide, separated on SDS-PAGE, transferred onto Immobilon membrane and blotted with anti-Raf-1 antibody.
The absorbed proteins were washed, eluted with FLAG peptide and probed for the presence of Raf-1 and 14-3-3 proteins on immunoblots. […] Washed cells (about 4×10^7) were lysed in Dounce homogenization buffer, centrifuged (15×10^3 xg for 15 min.) and supernatants applied onto washed anti-FLAG (M2) affinity column (IBI-Kodak) coated with bacterial lysates interacted with one of the FLAG-HMK fusion proteins. […]

- binding to Raf-1 [1]: bound to Raf-1
B1: IL-2Rβ-WT: human IL-2Rβ chain wild type expressed in COS cells from pRcCMV (protein)
chain: AVNGTSQFTCFYNSRANISCVWSQDGALQDTSCQVHAWPDRRRWNQTCELLPVSQASWACNLILGAPDSQKLTTVDIVTLRVLCREGVRWRVMAIQDFKPFENLRLMAPISLQVVHVETHRCNISWEISQASHYFERHLEFEARTLSPGHTWEEAPLLTLKQKQEWICLETLTPDTQYEFQVRVKPLQGEFTTWSPWSQPLAFRTKPAALGKDTIPWLGHLLVGLSGAFGFIILVYLLINCRNTGPWLKKVLKCNTPDPSKFFSQLSSEHGGDVQKWLSSPFPSSSFSPGGLAPEISPLEVLERDKVTQLLLQQDKVPEPASLSSNHSLTSCFTNQGYFFFHLPDALEIEACQVYFTYDPYSEEDPDEGVAGAPTGSSPQPLQPLSGEDDAYCTFPSRDDLLLFSPSLLGGPSPPSTAPGGSGAGEERMPPSLQERVPRDWDPQPLGPPTPGVPDLVDFQPPPELVLREAGEEVPDAGPREGVSFPWSRPPGQGEFRALNARLPLNTDAYLSLQELQGQDPTHLV
- binding of 14-3-3 proteins (14-3-3 proteins): bound
- binding of Raf-1 (Raf-1): bound
